Measurements taken from patent publication US20180186873A1 (CEPHALON, published 2018).
Read-outs that look alike come from different tables or passages of the source.

Key:
recombinant human IL-5 [1] = biological target: T1, recombinant human IL-5 (human, UniProt P05113 20-134); assay: SPR
recombinant human IL-5 [2] = biological target: T1, recombinant human IL-5; assay: SPR; remark: listed apart in the source
recombinant human IL-5 [3] = biological target: T1, recombinant human IL-5; assay: cell-based or functional assay
cynomolgus monkey IL-5 = cynomolgus monkey IL-5 (cynomolgus monkey); assay: cell-based or functional assay
recombinant human IL-5 [4] = biological target: T2, recombinant human IL-5 (human, UniProt P05113 20-134)
recombinant human IL-5 [5] = biological target: T2, recombinant human IL-5; remark: listed apart in the source
recombinant human IL-5 [6] = biological target: T2, recombinant human IL-5; remark: listed apart in the source
recombinant human IL-5 [7] = biological target: T2, recombinant human IL-5; remark: listed apart in the source
recombinant human IL-5 [8] = biological target: T2, recombinant human IL-5; remark: listed apart in the source
recombinant human IL-5 [9] = biological target: T2, recombinant human IL-5; remark: listed apart in the source
recombinant human IL-5 [10] = biological target: T2, recombinant human IL-5; assay: Biacore SPR, purified Ab captured on Protein A, IL-5 injected, run 2.1
recombinant human IL-5 [11] = biological target: T2, recombinant human IL-5; remark: listed apart in the source
recombinant human IL-5 [12] = biological target: T2, recombinant human IL-5; remark: listed apart in the source
recombinant human IL-5 [13] = biological target: T2, recombinant human IL-5; assay: Biacore SPR, purified Ab captured on Protein A, IL-5 injected, run 1.2
recombinant human IL-5 [14] = biological target: T3, recombinant human IL-5 (human, UniProt P05113 20-134); remark: listed apart in the source
recombinant human IL-5 [15] = biological target: T3, recombinant human IL-5; remark: listed apart in the source
recombinant human IL-5 [16] = biological target: T3, recombinant human IL-5; remark: listed apart in the source
recombinant human IL-5 [17] = biological target: T3, recombinant human IL-5; remark: listed apart in the source
recombinant human IL-5 [18] = biological target: T3, recombinant human IL-5; assay: SPR Biacore, purified Ab on Protein A chip, IL-5 analyte, run 3.1
recombinant human IL-5 [19] = biological target: T3, recombinant human IL-5; remark: listed apart in the source
recombinant human IL-5 [20] = biological target: T3, recombinant human IL-5; remark: listed apart in the source
recombinant human IL-5 [21] = biological target: T3, recombinant human IL-5; remark: listed apart in the source
recombinant human IL-5 [22] = biological target: T3, recombinant human IL-5; remark: listed apart in the source
recombinant human IL-5 [23] = biological target: T3, recombinant human IL-5; remark: listed apart in the source
recombinant human IL-5 [24] = biological target: T3, recombinant human IL-5; remark: listed apart in the source
recombinant human IL-5 [25] = biological target: T3, recombinant human IL-5; assay: SPR Biacore, purified Ab on Protein A chip, IL-5 analyte, run 2.2

B1: 3A5.046 (antibody, human IgG4 S228P, lambda)
heavy: QVQLQESGPGLVKPSQTLSLTCTVSGGSISNGGYYWSWIRQHPGKGLEWIGYIYYSGSTYYNPSLKSRVTISVDTSKNQFSLKLSSVTAADTAVYYCASLGNWFDYWGQGTLVTVSSASTKGPSVFPLAPCSRSTSESTAALGCLVKDYFPEPVTVSWNSGALTSGVHTFPAVLQSSGLYSLSSVVTVPSSSLGTKTYTCNVDHKPSNTKVDKRVESKYGPPCPPCPAPEFLGGPSVFLFPPKPKDTLYITREPEVTCVVVDVSQEDPEVQFNWYVDGVEVHNAKTKPREEQFNSTYRVVSVLTVLHQDWLNGKEYKCKVSNKGLPSSIEKTISKAKGQPREPQVYTLPPSQEEMTKNQVSLTCLVKGFYPSDIAVEWESNGQPENNYKTTPPVLDSDGSFFLYSRLTVDKSRWQEGNVFSCSVMHEALHNHYTQKSLSLSLG
light: SYVLTQPPSVSVAPGQTARITCGGNNIGSKNVYWYQQKPGQAPVLVVHDDSDRPSGIPERFSGSNSGNTATLTISRVEVGDEADYSCQVWDSSSDHVVFGGGTKLTVLGQPKAAPSVTLFPPSSEELQANKATLVCLISDFYPGAVTVAWKADSSPVKAGVETTTPSKQSNNKYAASSYLSLTPEQWKSHRSYSCQVTHEGSTVEKTVAPTECS
Q: Which Kd (recombinant human IL-5 [1]) does the source give for B1 here?
A: 0.0217 nM

Q: What about the koff (recombinant human IL-5 [1]) of the same binder?
A: 1.84e-05 s⁻¹

Q: What about the kon (recombinant human IL-5 [1]) of the same binder?
A: 849000 M⁻¹ s⁻¹

Q: And the Kd (recombinant human IL-5 [2])?
A: 0.0194 nM

Q: And the koff (recombinant human IL-5 [2])?
A: 1.58e-05 s⁻¹

Q: What about the kon (recombinant human IL-5 [2]) of the same binder?
A: 816000 M⁻¹ s⁻¹

Q: What about the “IC50, inhibition of IL-5 driven proliferation of TF-1.6G4 cells (Mean, pM)” value (recombinant human IL-5 [3]) of the same binder?
A: 13.8 pM

Q: What about the “IC50, inhibition of IL-5 driven proliferation of TF-1.6G4 cells (Mean, pM)” value (cynomolgus monkey IL-5) of the same binder?
A: 43.8 pM

B2: 3A5.040 (antibody, human IgG4 S228P, lambda)
heavy: not shown
light: B1 light
Q: How did the Kd (recombinant human IL-5 [4]) turn out when B2 was run?
A: 0.143 nM

Q: And the koff (recombinant human IL-5 [4])?
A: 0.000104 s⁻¹

Q: And the kon (recombinant human IL-5 [4])?
A: 728000 M⁻¹ s⁻¹

Q: What about the Kd (recombinant human IL-5 [5]) of the same binder?
A: 0.163 nM

Q: What about the koff (recombinant human IL-5 [5]) of the same binder?
A: 0.000116 s⁻¹

Q: What about the kon (recombinant human IL-5 [5]) of the same binder?
A: 713000 M⁻¹ s⁻¹

Q: What about the Kd (recombinant human IL-5 [6]) of the same binder?
A: 0.18 nM

Q: And the koff (recombinant human IL-5 [6])?
A: 0.000133 s⁻¹

Q: And the kon (recombinant human IL-5 [6])?
A: 740000 M⁻¹ s⁻¹

Q: What about the Kd (recombinant human IL-5 [7]) of the same binder?
A: 0.115 nM

Q: And the koff (recombinant human IL-5 [7])?
A: 8.22e-05 s⁻¹

Q: What about the kon (recombinant human IL-5 [7]) of the same binder?
A: 714000 M⁻¹ s⁻¹

Q: What about the Kd (recombinant human IL-5 [8]) of the same binder?
A: 0.15 nM

Q: What about the koff (recombinant human IL-5 [8]) of the same binder?
A: 0.00011 s⁻¹

Q: And the kon (recombinant human IL-5 [8])?
A: 732000 M⁻¹ s⁻¹

Q: What about the Kd (recombinant human IL-5 [9]) of the same binder?
A: 0.163 nM

Q: What about the koff (recombinant human IL-5 [9]) of the same binder?
A: 0.000116 s⁻¹

Q: And the kon (recombinant human IL-5 [9])?
A: 713000 M⁻¹ s⁻¹

Q: What about the Kd (recombinant human IL-5 [10]) of the same binder?
A: 0.142 nM

Q: And the koff (recombinant human IL-5 [10])?
A: 0.000105 s⁻¹

Q: And the kon (recombinant human IL-5 [10])?
A: 737000 M⁻¹ s⁻¹

Q: What about the Kd (recombinant human IL-5 [11]) of the same binder?
A: 0.129 nM

Q: And the koff (recombinant human IL-5 [11])?
A: 9.36e-05 s⁻¹

Q: And the kon (recombinant human IL-5 [11])?
A: 727000 M⁻¹ s⁻¹

Q: And the Kd (recombinant human IL-5 [12])?
A: 0.139 nM

Q: What about the koff (recombinant human IL-5 [12]) of the same binder?
A: 0.000101 s⁻¹

Q: What about the kon (recombinant human IL-5 [12]) of the same binder?
A: 728000 M⁻¹ s⁻¹

Q: What about the Kd (recombinant human IL-5 [13]) of the same binder?
A: 0.151 nM

Q: What about the koff (recombinant human IL-5 [13]) of the same binder?
A: 0.000111 s⁻¹

Q: What about the kon (recombinant human IL-5 [13]) of the same binder?
A: 735000 M⁻¹ s⁻¹

B3: 3A5.040 (antibody, human IgG4 S228P, lambda)
heavy: not shown
light: B1 light
Q: For B3, which Kd (recombinant human IL-5 [14]) is on record?
A: 0.134 nM

Q: What about the koff (recombinant human IL-5 [14]) of the same binder?
A: 0.000103 s⁻¹

Q: And the kon (recombinant human IL-5 [14])?
A: 773000 M⁻¹ s⁻¹

Q: What about the Kd (recombinant human IL-5 [15]) of the same binder?
A: 0.151 nM

Q: What about the koff (recombinant human IL-5 [15]) of the same binder?
A: 0.000117 s⁻¹

Q: What about the kon (recombinant human IL-5 [15]) of the same binder?
A: 775000 M⁻¹ s⁻¹

Q: What about the Kd (recombinant human IL-5 [16]) of the same binder?
A: 0.177 nM

Q: What about the koff (recombinant human IL-5 [16]) of the same binder?
A: 0.000137 s⁻¹

Q: What about the kon (recombinant human IL-5 [16]) of the same binder?
A: 772000 M⁻¹ s⁻¹

Q: And the Kd (recombinant human IL-5 [17])?
A: 0.15 nM

Q: And the koff (recombinant human IL-5 [17])?
A: 0.000117 s⁻¹

Q: And the kon (recombinant human IL-5 [17])?
A: 779000 M⁻¹ s⁻¹

Q: And the Kd (recombinant human IL-5 [18])?
A: 0.174 nM

Q: What about the koff (recombinant human IL-5 [18]) of the same binder?
A: 0.00014 s⁻¹

Q: What about the kon (recombinant human IL-5 [18]) of the same binder?
A: 807000 M⁻¹ s⁻¹

Q: And the Kd (recombinant human IL-5 [19])?
A: 0.171 nM

Q: What about the koff (recombinant human IL-5 [19]) of the same binder?
A: 0.000132 s⁻¹

Q: What about the kon (recombinant human IL-5 [19]) of the same binder?
A: 772000 M⁻¹ s⁻¹

Q: What about the Kd (recombinant human IL-5 [20]) of the same binder?
A: 0.135 nM

Q: What about the koff (recombinant human IL-5 [20]) of the same binder?
A: 0.000105 s⁻¹

Q: And the kon (recombinant human IL-5 [20])?
A: 777000 M⁻¹ s⁻¹

Q: And the Kd (recombinant human IL-5 [21])?
A: 0.148 nM

Q: What about the koff (recombinant human IL-5 [21]) of the same binder?
A: 0.000115 s⁻¹

Q: What about the kon (recombinant human IL-5 [21]) of the same binder?
A: 776000 M⁻¹ s⁻¹

Q: What about the Kd (recombinant human IL-5 [22]) of the same binder?
A: 0.138 nM

Q: What about the koff (recombinant human IL-5 [22]) of the same binder?
A: 0.000109 s⁻¹

Q: And the kon (recombinant human IL-5 [22])?
A: 789000 M⁻¹ s⁻¹

Q: And the Kd (recombinant human IL-5 [23])?
A: 0.153 nM

Q: What about the koff (recombinant human IL-5 [23]) of the same binder?
A: 0.00012 s⁻¹

Q: What about the kon (recombinant human IL-5 [23]) of the same binder?
A: 784000 M⁻¹ s⁻¹

Q: What about the Kd (recombinant human IL-5 [24]) of the same binder?
A: 0.149 nM

Q: And the koff (recombinant human IL-5 [24])?
A: 0.000114 s⁻¹

Q: What about the kon (recombinant human IL-5 [24]) of the same binder?
A: 769000 M⁻¹ s⁻¹

Q: And the Kd (recombinant human IL-5 [25])?
A: 0.133 nM

Q: And the koff (recombinant human IL-5 [25])?
A: 0.000106 s⁻¹

Q: What about the kon (recombinant human IL-5 [25]) of the same binder?
A: 793000 M⁻¹ s⁻¹
